Our source for the mean fluorescence and EC50 values is patent US20180142032A1 (Sanofi, published 2018).

For one assay, the target named is T1, mLAMP1_ΔGYQTI (mouse, UniProt P11438 25-369).
T1 construct: on cells; also called pXL6009; murine LAMP1; not shown: murine transmembrane domain and cytoplasmic tail with GYQTI replaced by 5 Ala
T1 sequence: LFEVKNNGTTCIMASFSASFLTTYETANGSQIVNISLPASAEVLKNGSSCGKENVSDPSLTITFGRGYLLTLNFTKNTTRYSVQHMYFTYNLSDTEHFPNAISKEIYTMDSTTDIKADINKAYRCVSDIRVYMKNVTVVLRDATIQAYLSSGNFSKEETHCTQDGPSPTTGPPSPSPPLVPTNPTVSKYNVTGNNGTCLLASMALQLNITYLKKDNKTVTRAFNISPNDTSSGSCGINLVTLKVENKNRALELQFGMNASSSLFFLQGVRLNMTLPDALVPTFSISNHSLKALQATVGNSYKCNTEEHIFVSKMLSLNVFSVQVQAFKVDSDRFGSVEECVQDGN
The assay can be described thus: flow cytometry, transfected 293-F cells, experiment 2. On the technique in general: In flow cytometry, cells or beads pass a laser one at a time.

A further assay deals with T2, mLAMP1_hseq6-11_ΔGYQTI (mouse; human, UniProt P11438 25-369).
T2 construct: on cells; also called pXL6041; not shown: murine transmembrane domain and cytoplasmic tail with GYQTI replaced by 5 Ala
T2 chain: T1 sequence with Y68H, L69T, K76R, T78A, S151N, G152S, N153S, K156R, E157G
The description is as above.

For another assay, the target named is T3, mLAMP1_hseq6_ΔGYQTI (mouse; human, UniProt P11438 25-369).
T3 construct: on cells; numbering read as for pXL6041; also called pXL6047; not shown: murine transmembrane domain and cytoplasmic tail with GYQTI replaced by 5 Ala
T3 chain: T1 sequence with Y68H, L69T, K76R, T78A
Described as above.

A further assay deals with T4, mLAMP1_hseq11_ΔGYQTI (mouse; human, UniProt P11438 25-369).
T4 construct: on cells; numbering read as for pXL6041; also called pXL6048; not shown: murine transmembrane domain and cytoplasmic tail with GYQTI replaced by 5 Ala
T4 chain: T1 sequence with S151N, G152S, N153S, K156R, E157G
Described as above.

The next assay addresses T5, mLAMP1_hseq6-9-11_ΔGYQTI (mouse; human, UniProt P11438 25-369).
T5 construct: on cells; numbering read as for pXL6041; also called pXL6092; not shown: murine transmembrane domain and cytoplasmic tail with GYQTI replaced by 5 Ala
T5 chain: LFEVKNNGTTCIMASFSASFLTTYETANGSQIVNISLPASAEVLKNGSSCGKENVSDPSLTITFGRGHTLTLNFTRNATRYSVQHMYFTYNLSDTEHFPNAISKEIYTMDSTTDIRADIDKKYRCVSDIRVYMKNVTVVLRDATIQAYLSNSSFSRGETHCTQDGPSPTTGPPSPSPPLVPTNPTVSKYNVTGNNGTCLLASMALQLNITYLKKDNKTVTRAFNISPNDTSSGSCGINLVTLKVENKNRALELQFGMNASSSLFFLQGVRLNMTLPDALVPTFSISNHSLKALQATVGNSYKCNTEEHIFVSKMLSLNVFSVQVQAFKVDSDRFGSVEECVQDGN
The assay is described as above.

For assay [1], the target named is T6, human LAMP1 at the cell surface (human, UniProt P11279 29-417).
T6 construct: native on tumour cells (PDX, Colo205, SW480, LS174T) or from the cloned CDS NM_005561.3 in HEK293 and HCT116; signal peptide 1-28 left out; also called huLAMP1; full length human LAMP1
T6 sequence: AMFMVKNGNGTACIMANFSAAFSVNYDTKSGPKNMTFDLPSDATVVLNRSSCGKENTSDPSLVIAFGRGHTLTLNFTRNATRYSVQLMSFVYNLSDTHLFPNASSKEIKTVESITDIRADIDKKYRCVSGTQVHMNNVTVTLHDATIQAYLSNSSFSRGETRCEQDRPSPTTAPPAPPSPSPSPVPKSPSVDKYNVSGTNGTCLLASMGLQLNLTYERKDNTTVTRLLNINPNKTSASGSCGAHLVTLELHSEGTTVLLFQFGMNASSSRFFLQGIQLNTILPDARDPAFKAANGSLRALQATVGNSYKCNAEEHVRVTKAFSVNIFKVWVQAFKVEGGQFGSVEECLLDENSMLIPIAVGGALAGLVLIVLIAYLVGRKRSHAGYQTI
Kind of assay: flow cytometry, HCT116 stable clones. As for the experimental part:
100 μL/well of goat anti-mouse IgG conjugated with Alexa647 (Invitrogen; # A2135) was added for 45 min at 4° C. and washed three times with PBS 1% BSA. The antibody binding was evaluated after centrifugation and re-suspension of cells by adding 200 μl/well PBS 1% BSA and read using Guava® easyCyte™ 8HT Flow Cytometry System. EC50 values were estimated using BIOST@T-SPEED software.

Usually EC50 stands for the midpoint of the concentration-response curve. Lower therefore signals greater potency.

Positions count from the first letter of the chain named.

B1: MAb1 (antibody, mouse IgG2a, kappa)
heavy: QVQLQQSGAELVKPGASVKMSCKASGYIFTNYNIHWVKKSPGQGLEWIGAIYPGNGDAPYSQKFKDKATLTADKSSSTTYMQLSRLTSEDSAVYYCVRANWDVAFAYWGQGTLVSVSAAKTTAPSVYPLAPVCGDTTGSSVTLGCLVKGYFPEPVTLTWNSGSLSSGVHTFPAVLQSDLYTLSSSVTVTSSTWPSQSITCNVAHPASSTKVDKKIEPRGPTIKPCPPCKCPAPNLLGGPSVFIFPPKIKDVLMISLSPIVTCVVVDVSEDDPDVQISWFVNNVEVHTAQTQTHREDYNSTLRVVSALPIQHQDWMSGKEFKCKVNNKDLPAPIERTISKPKGSVRAPQVYVLPPPEEEMTKKQVTLTCMVTDFMPEDIYVEWTNNGKTELNYKNTEPVLDSDGSYFMYSKLRVEKKNWVERNSYSCSVVHEGLHNHHTTKSFSRTPGK
light: DIQMTQSPPSLSASLGGKVTITCKASQDIDRYMAWYQDKPGKGPRLLIHDTSTLQPGIPSRFSGSGSGRDYSFSISNLEPEDIATYYCLQYDNLWTFGGGTKLEIKRADAAPTVSIFPPSSEQLTSGGASVVCFLNNFYPKDINVKWKIDGSERQNGVLNSWTDQDSKDSTYSMSSTLTLTKDEYERHNSYTCEATHKTSTSPIVKSFNRNEC
notes: murine monoclonal IgG, kappa, from hybridoma; also called murine MAb1
As to B1, the mean fluorescence amounted to 2 in the assay with mLAMP1_ΔGYQTI; 211 with mLAMP1_hseq6-11_ΔGYQTI; 3 in the assay with mLAMP1_hseq6_ΔGYQTI; 2 in the assay with mLAMP1_hseq11_ΔGYQTI; 499 with mLAMP1_hseq6-9-11_ΔGYQTI.

B2: MAb2 (antibody, mouse IgG1, kappa)
heavy: QVQLQQSAAELARPGASVKMSCKASGYTFTSYTMHWVKQRPGQGLEWIGYFNPSSGYPEYNQKFKDKTTLTADKSSNTAFIQLNSLTSEDSAVYYCSRGYYYGSRGYALDFWGQGASVTVSSAKTTPPSVYPLAPGSAAQTNSMVTLGCLVKGYFPEPVTVTWNSGSLSSGVHTFPAVLQSDLYTLSSSVTVPSSTWPSETVTCNVAHPASSTKVDKKIVPRDCGCKPCICTVPEVSSVFIFPPKPKDVLTITLTPKVTCVVVDISKDDPEVQFSWFVDDVEVHTAQTQPREEQFNSTFRSVSELPIMHQDWLNGKEFKCRVNSAAFPAPIEKTISKTKGRPKAPQVYTIPPPKEQMAKDKVSLTCMITDFFPEDITVEWQWNGQPAENYKNTQPIMDTDGSYFVYSKLNVQKSNWEAGNTFTCSVLHEGLHNHHTEKSLSHSPGK
light: NIVLTQSPVSLAVSLGQRATISCRASESVDINGNTFMHWYQQKPGQSPKLVIYAASNIESGVPARFSGSGSSTDFTFTIDPVEADDVATYYCQQNIEDPWTFGGGTKVEIKRADAAPTVSIFPPSSEQLTSGGASVVCFLNNFYPKDINVKWKIDGSERQNGVLNSWTDQDSKDSTYSMSSTLTLTKDEYERHNSYTCEATHKTSTSPIVKSFNRNEC
notes: murine monoclonal IgG, kappa, from hybridoma; also called murine MAb2
In turn, B2 registered an EC50 in assay [1] of 6.3 nM.
